From patent US20150266954A1 (Eli Lilly, published 2015)

What was measured:
human IL-21 [1] = biological target: T1, human IL-21 (human, UniProt Q9HBE4 32-162); assay: assay not named; human IL-21
T1 construct: Recombinant; also called hIL-21; huIL-21

human IL-21 [2] = biological target: T1, human IL-21; assay: cell-based or functional assay
human IL-4 = biological target: T2, human IL-4 (human, UniProt P05112 25-153); assay: ELISA, Ab327 captured on plate, biotinylated cytokine
T2 sequence (looked up): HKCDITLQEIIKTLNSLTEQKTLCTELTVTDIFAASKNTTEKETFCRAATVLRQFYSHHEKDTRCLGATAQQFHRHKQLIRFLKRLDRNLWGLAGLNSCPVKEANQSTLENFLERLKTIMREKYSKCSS
Method: (§1) The objective of this study was to determine the binding specificity of Ab327 to human IL-21 as compared with the other members of the common-gamma (γc) chain receptor cytokines. The cytokine receptor γc-chain family consists of six members, IL-2, IL-4, IL-7, IL-9, IL-15, and IL-21. All members of this family signal through receptor complexes that contain the γc subunit. The specificity of Ab327 for binding to other human γc chain cytokine family members was determined using an ELISA. Briefly, Ab327 was captured on an ELISA plate coated with goat anti-human kappa IgG. Cytokines labeled with biotin titrated from 100 nM-780 pM were then added to the plate for 1 hour at 37° C. and any bound cytokine was detected using Neutravidin labeled with alkaline phosphatase. Commercially available mouse monoclonal antibody to IL-2 and goat polyclonal antibodies to IL-4, IL-7, IL-9 and IL-15 captured with donkey anti-goat IgG gave positive signals after binding the biotinylated cytokines and detection with Neutravidin.

human IL-9 = human IL-9 (human, UniProt P15248 19-144); assay: as above
Method: as §1

human IL-7 = biological target: T3, human IL-7 (human, UniProt P13232 26-177); assay: as above
T3 sequence (looked up): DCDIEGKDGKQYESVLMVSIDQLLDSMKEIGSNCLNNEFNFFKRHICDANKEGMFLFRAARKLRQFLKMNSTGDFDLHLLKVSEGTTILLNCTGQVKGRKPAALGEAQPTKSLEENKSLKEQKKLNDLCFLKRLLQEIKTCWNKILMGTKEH
Method: as §1

human IL-15 = human IL-15 (human, UniProt P40933 49-162); assay: as above
Method: as §1

human IL-2 = human IL-2 (human, UniProt P60568 21-153); assay: as above
Method: as §1

rat IL-21 = rat IL-21 (rat, UniProt A3QPB9 18-146); assay: KinExA solution equilibrium binding, 37 C, n=3
Method: (§2) Ab327 is an engineered, humanized monoclonal IgG4 antibody that binds and neutralizes human IL-21. The purpose of this study was to determine the binding affinity of Ab327 for human, cynomolgus monkey, mouse, rat, and rabbit IL-21 (the sequences are given below). […] KinExA solution equilibrium binding experiments were performed using a fixed antibody concentration protocol and 2-fold serial dilutions of IL-21. Samples were equilibrated at 37° C. for 6-36 hours prior to analysis. Free antibody in the equilibrated samples was detected using a Dylight 649-conjugated anti-human IgG Fc polyclonal antibody. The resulting percent free antibody versus antigen concentration data were fit to an “affinity, standard” binding model using the KinExA Pro software, and the best fit binding affinity value (KD) was determined
(§3) The average KD from three independent experiments along with the standard deviation (human, cynomolgus monkey, mouse, and rat) or from a single determination (rabbit IL-21) is summarized in Table 3 below (apparent solution equilibrium binding affinity (KD) of Ab327).

mouse IL-21 = mouse IL-21 (mouse, UniProt Q9ES17 18-146); assay: KinExA solution equilibrium binding, 37 C, n=3
Method: as §2, §3

human IL-21 [3] = biological target: T1, human IL-21; assay: KinExA solution equilibrium binding, 37 C, n=3
Method: as §2, §3

cynomolgus monkey IL-21 [4] = biological target: T4, cynomolgus monkey IL-21 (cynomolgus monkey, UniProt Q9HBE4 32-162 (human entry)); assay: KinExA solution equilibrium binding, 37 C, n=3
T4 construct: not in a public database; also called Cyno IL-21; cynomolgous monkey IL-21
Method: as §2, §3

human IL-21 [5] = biological target: T1, human IL-21; assay: cell-based or functional assay; remark: listed apart in the source
cynomolgus monkey IL-21 [6] = biological target: T4, cynomolgus monkey IL-21; assay: cell-based or functional assay
cynomolgus monkey IL-21 [7] = biological target: T4, cynomolgus monkey IL-21; assay: assay not named; cynomolgus monkey IL-21
human IL-21 [8] = biological target: T1, human IL-21; assay: cell-based or functional assay; remark: listed apart in the source
human IL-21 [9] = biological target: T1, human IL-21; assay: assay not named

T4 sequence (Q9HBE4 other isoform, or with tags, fused parts or gaps): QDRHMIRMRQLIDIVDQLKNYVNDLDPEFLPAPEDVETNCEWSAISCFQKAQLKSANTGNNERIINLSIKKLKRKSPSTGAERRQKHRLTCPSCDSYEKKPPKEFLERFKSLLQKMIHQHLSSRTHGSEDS
T1 sequence (Q9HBE4 32-162): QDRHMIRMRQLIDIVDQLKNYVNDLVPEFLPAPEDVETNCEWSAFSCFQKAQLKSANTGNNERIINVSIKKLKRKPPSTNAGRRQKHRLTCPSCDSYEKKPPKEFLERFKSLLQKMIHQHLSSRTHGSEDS
Sequence of human IL-2 (P60568 21-153 limits assumed): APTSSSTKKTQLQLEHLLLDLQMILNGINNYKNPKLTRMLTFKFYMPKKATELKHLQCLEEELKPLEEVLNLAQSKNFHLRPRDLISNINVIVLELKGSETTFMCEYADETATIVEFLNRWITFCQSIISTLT
Sequence of rat IL-21 (A3QPB9 18-146): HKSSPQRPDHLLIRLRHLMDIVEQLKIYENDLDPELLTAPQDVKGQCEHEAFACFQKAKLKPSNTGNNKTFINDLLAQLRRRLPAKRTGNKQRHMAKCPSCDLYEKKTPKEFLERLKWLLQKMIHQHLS
Sequence of human IL-9 (P15248 19-144 limits assumed): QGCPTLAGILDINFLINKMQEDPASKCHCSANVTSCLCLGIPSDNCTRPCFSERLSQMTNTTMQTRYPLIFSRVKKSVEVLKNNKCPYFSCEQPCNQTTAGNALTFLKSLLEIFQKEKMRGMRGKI
Sequence of human IL-15 (P40933 49-162 limits assumed): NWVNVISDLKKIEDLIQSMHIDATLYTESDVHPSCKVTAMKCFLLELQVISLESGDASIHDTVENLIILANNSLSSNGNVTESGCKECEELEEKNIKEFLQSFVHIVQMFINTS

B1: Ab327 (antibody, human IgG4 S228P, kappa, F234A L235A, V domains shown)
VH: QVQLVQSGAEVKKPGASVKVSCKASGYTFTDYWMHWVRQAPGQGLEWMGLIDTSDVYTIYNQKFKGRVTMTRDTSTSTVYMELSSLRSEDTAVYYCARYGPLAMDYWGQGTLVTVSS
VL: DIQMTQSPSSLSASVGDRVTITCRASQDISNYLNWYQQKPGKAPKLLIYYTSRLHSGVPSRFSGSGSGTDFTLTISSLQPEDFATYYCQQFHTLRTFGGGTKVEIKR
modifications: N-linked glycosylation site at Asn294 of SEQ ID NO:3 may be glycosylated
notes: Engineered, humanized IgG4 (S225P, F231A/L232A) kappa antibody; expressed in HEK293 or CHO cells; also called final engineered humanized antibody; IL-21 antibody
Kd (human IL-21 [1]): ~0.5 pM
fold increase of plasma cells (CD38 high, IgD low), donor 1, 26.7 nM antibody (IL-21 without antibody: 176) (human IL-21 [2]): 11.7 fold
fold increase of plasma cells (CD38 high, IgD low), donor 2, 26.7 nM antibody (IL-21 without antibody: 114) (human IL-21 [2]): 3.38 fold
fold increase of plasma cells (CD38 high, IgD low), donor 3, 26.7 nM antibody (IL-21 without antibody: 47) (human IL-21 [2]): 7.81 fold
fold increase of plasma cells (CD38 high, IgD low), donor 4, 26.7 nM antibody (IL-21 without antibody: 68) (human IL-21 [2]): 6.87 fold
fold increase of plasma cells (CD38 high, IgD low), donor 5, 26.7 nM antibody (IL-21 without antibody: 22) (human IL-21 [2]): 3.64 fold
binding result (human IL-4): no binding (tested: 100 nM)
binding result (human IL-9): no binding (tested: 100 nM)
binding result (human IL-7): no binding (tested: 100 nM)
binding result (human IL-15): no binding (tested: 100 nM)
binding result (human IL-2): no binding (tested: 100 nM)
Kd (rat IL-21): 230 nM
Kd (mouse IL-21): 240 nM
Kd (human IL-21 [3]): 0.8 pM
Kd (cynomolgus monkey IL-21 [4]): 0.3 pM
IC50, IM9 pan-STAT-luciferase reporter assay, IL-21 at 66.67 pM (human IL-21 [5]): 46.7 pM
IC50, IM9 pan-STAT-luciferase reporter assay, IL-21 at 66.67 pM (cynomolgus monkey IL-21 [6]): 48.3 pM
Kd (cynomolgus monkey IL-21 [7]): ~0.5 pM
IC50, IL-21-induced proliferation of primary human B cells (3H-thymidine uptake) (human IL-21 [8]): 1.15 nM

B2: humanized antibody with CDRs derived from antibody 15M2, utilizing the 1-46 heavy chain human framework and O2 human light chain framework (antibody, V domains shown)
VH: QVQLVQSGAEVKKPGASVKVSCKASGYTFTDYWMHWVRQAPGQGLEWMGLIDTSDSYTIYNQKFKGRVTMTRDTSTSTVYMELSSLRSEDTAVYYCARYGPLAMDYWGQGTLVTVSS
VL: DIQMTQSPSSLSASVGDRVTITCRASQDISNYLNWYQQKPGKAPKLLIYYTSRLHSGVPSRFSGSGSGTDFTLTISSLQPEDFATYYCQQFNTLRTFGGGTKVEIK
notes: Human IgG4 expression vectors; also called the humanized antibody
Kd (human IL-21 [9]): ~0.5 pM

B3: engineered antibody containing both heavy chain Asp55Glu and light chain Asn92His mutations (antibody, V domains shown)
VH: QVQLVQSGAEVKKPGASVKVSCKASGYTFTDYWMHWVRQAPGQGLEWMGLIDTSESYTIYNQKFKGRVTMTRDTSTSTVYMELSSLRSEDTAVYYCARYGPLAMDYWGQGTLVTVSS
VL: DIQMTQSPSSLSASVGDRVTITCRASQDISNYLNWYQQKPGKAPKLLIYYTSRLHSGVPSRFSGSGSGTDFTLTISSLQPEDFATYYCQQFHTLRTFGGGTKVEIK
notes: Human IgG4
Kd (human IL-21 [1]): ~2 pM
Kd (cynomolgus monkey IL-21 [7]): ~2 pM
